Where a chain is given by its changes, count along the chain named. Blank lines part the entries; values can stand above or below the binder they belong to.
How the values were obtained:
[1] = molecular target: biotinylated human ApoC3 (human) (UniProt P02656); assay: SPR, biotinylated human ApoC3 on streptavidin chip, scFv-Fc injected, pH 7.4
[2] = molecular target: biotinylated human ApoC3 (human) (UniProt P02656); assay: SPR, biotinylated human ApoC3 on streptavidin chip, scFv-Fc injected, pH 5.5
[3] = molecular target: biotinylated human ApoC3 (human) (UniProt P02656); assay: SPR, biotinylated human ApoC3 on streptavidin chip, scFv-Fc injected; ratio of KD at pH 5.5 to KD at pH 7.4

Chain of UniProt P02656 (P02656 21-99): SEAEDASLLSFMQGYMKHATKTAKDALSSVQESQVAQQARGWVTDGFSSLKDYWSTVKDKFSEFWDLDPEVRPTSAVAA

- Kd [1]: 20 pM
- koff [1]: 1.75e-05 s⁻¹
- kon [1]: 823000 M⁻¹ s⁻¹
- Kd [2]: 60 pM
- koff [2]: 2.53e-05 s⁻¹
- kon [2]: 393000 M⁻¹ s⁻¹
- KD pH 5.5/KD pH 7.4 [3]: 3
B1: 5E5WT scFv-Fc antibody (scFv, part only; not given: Linker, domain order, Fc, V domains shown, not shown: another chain or arm of the molecule; a dimerising Fc or GST; small tags and cut ends)
VH: QLQLVESGGGLVQPGGSLRLSCAASGFTFGTYSMRWVRQVPRKALEWVSSISTDGGGTAYRDSVKGRFTISRDNAKNTLYLQMNNLKPEDTAIYYCVIAGYSDWGQGTQVTVSS
VL: ATMLTQSPGSLSVVPGESASISCKTSQGLVHSDGKTYFYWFLQKPGQSPQQLIYQVSNRASGVPDRFTGSGSGTDFTLKISGVKAEDAGVYYCAQGTYYPHTFGSGTRLEIK

- Kd [1]: 580 pM
- koff [1]: 0.000221 s⁻¹
- kon [1]: 381000 M⁻¹ s⁻¹
- Kd [2]: 4290 pM
- koff [2]: 0.00116 s⁻¹
- kon [2]: 269000 M⁻¹ s⁻¹
- KD pH 5.5/KD pH 7.4 [3]: 7.4
B4: 5E5VHWT_VL8 scFv-Fc antibody (scFv, part only; not given: Linker, domain order, Fc, V domains shown, not shown: another chain or arm of the molecule; a dimerising Fc or GST; small tags and cut ends)
VH: B1 VH
VL: B1 VL with Q95H

The remaining lines, values behind:

B2: 5E5VH5_VLWT scFv-Fc antibody (scFv, part only; not given: Linker, domain order, Fc, V domains shown, not shown: another chain or arm of the molecule; a dimerising Fc or GST; small tags and cut ends)
VH: B1 VH with S52H
VL: B1 VL
- Kd [1]: 590 pM
- koff [1]: 0.000105 s⁻¹
- kon [1]: 178000 M⁻¹ s⁻¹
- Kd [2]: 10900 pM
- koff [2]: 0.0016 s⁻¹
- kon [2]: 147000 M⁻¹ s⁻¹
- KD pH 5.5/KD pH 7.4 [3]: 18.5

B3: 5E5VH12_VLWT scFv-Fc antibody (scFv, part only; not given: Linker, domain order, Fc, V domains shown, not shown: another chain or arm of the molecule; a dimerising Fc or GST; small tags and cut ends)
VH: B1 VH with A99H
VL: B1 VL
- Kd [1]: 510 pM
- koff [1]: 0.000157 s⁻¹
- kon [1]: 308000 M⁻¹ s⁻¹
- Kd [2]: 16000 pM
- koff [2]: 0.00206 s⁻¹
- kon [2]: 129000 M⁻¹ s⁻¹
- KD pH 5.5/KD pH 7.4 [3]: 31.4

Reference: patent publication US20200148755A1
